Patent US7582299B2, “Cripto-specific antibodies” (Biogen Idec MA Inc., priority 2001, dated 2009)

What was measured:
T-47D-CR cells = test: Proliferation of T-47D-CR cells with Activin, with or without anti-Cripto mab; type: cell-based, human; conditions: low serum; FIG. 6
Protocol: (§1) T47D cells, maintained in RPMI/10% FCS/10 μg/ml insulin, at passage #2 from the ATCC were transfected with an expression plasmid for the Ecotropic Receptor (EcoR; B. Elenbaas) and selected in media containing 100 μg/ml hygromycin. Colonies of T-47D-EcoR that permitted infection of pBABE-GFP murine leukemia virus (MLV) were grown out, infected with pBABE-hCr-PURO-MLV and selected in puromycin media. This oligoclonal line (T-47D-hCr) was analyzed by FACS for hCr (human Cripto) expression with specific anti-Cripto antibodies. Approximately 4000 cells/well of T-47D-EcoR or T-47D-hCr were plated in a 96 well plate in media containing 2% serum with/without 25 ng/ml Activin B (R&D) or […] plus 0.1-50 μg/ml A8G3.5. Media with factors was replaced daily for 7-8 days. The plate was harvested by adding 20 μl/well CellTiter AQueous One solution (Promega), incubating 2 hours 37° C., and reading at 490 nm.
(§2) We grew T-47D and T-47D-EcoR cells in low serum conditions, with or without Activin A or B and assayed for proliferating cells using an MTT colorimetric assay.
We then tested whether antibodies of the invention can inhibit the Cripto-Activin B interaction. We treated T-47D-CR cells with Activin B in the presence of various antibodies of the invention. We observed that the growth suppressive activity of Activin B was restored in the presence of 10 or 20 μg/ml mab A8G3.5 (FIG. 7).

T-47D cells = test: Proliferation of T-47D cells with Activin A or B (MTT); type: cell-based, human; conditions: low serum; compared to untreated cells; FIG. 6
Protocol: as §1, §2

CR-Fc [1] = biological target: T1, CR-Fc (Homo sapiens, UniProt P13385); test: ELISA of CR-Fc on ligand-coated plates; type: binding; conditions: for inhibition of CR-Fc binding to Activin B coated plate: CR-Fc pre-incubated with ligand in solution, FIG. 9; for binding of CR-Fc to ligand-coated wells: ELISA plates coated with purified ligand, FIG. 8
T1 sequence (P13385 31-150): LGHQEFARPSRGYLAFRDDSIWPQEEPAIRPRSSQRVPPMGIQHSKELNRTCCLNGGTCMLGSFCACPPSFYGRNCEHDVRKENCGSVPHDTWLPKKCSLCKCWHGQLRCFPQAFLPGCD
Protocol: In still other experiments, we coated 96 well plates by adding to each well 100 μl of 3-5 μg/ml Activin B or another ligand in 50 mM carbonate (pH 9.5). We incubated the plates for 1 hr. at room temperature and blocked overnight with TBS/1% BSA overnight at 4° C. We incubated the plate with CR-Fc or ALK4-Fc in blocking buffer at room temperature, washed in TBST and probed with anti-human-AP (Jackson). We washed the plate in TBST, once in 10× substrate buffer (200 mM Tris-HCl, 10 mM MgCl2, pH 9.8) and added CSPD and Sapphire (Applied Biosystems).
We discovered that Cripto binds directly to Activin B. We coated ELISA plates with purified Activin B, Activin A, TGFβ1, GDNF or BMP2 and incubated with CR-Fc. We then added anti-Fc antibody conjugated to alkaline phosphatase and monitored binding by adding an alkaline phosphatase substrate and developing.

CR-Fc [2] = biological target: T1, CR-Fc; test: Biacore, CR-Fc immobilized on chip; type: binding; conditions: for binding to CR-Fc immobilized on a Biacore chip: FIG. 10
Text: We also analyzed the Cripto-Activin B interaction using Biacore. […] We also observed that Activin A binding to CR-Fc was negligible.

| inhibition of CR-Fc binding to Activin B coated plate (CR-Fc [1]) | binding of CR-Fc to ligand-coated wells (CR-Fc [1]) | on rate of binding to Cripto (CR-Fc [2]; Biacore) | Substance | response of T-47D-CR cell proliferation to Activin (T-47D-CR cells) | inhibition of proliferation of T-47D cells (T-47D cells) | binding to CR-Fc immobilized on a Biacore chip (CR-Fc [2]) |
| --- | --- | --- | --- | --- | --- | --- |
| only Activin B inhibits binding | not to Activin A | – | Activin A: purified ligand protein tested on T-47D cells and for binding to CR-Fc | inhibited by Activin A | approximately 40% | negligible |
| only Activin B inhibits binding | bound to wells containing Activin B | fast on rate | Activin B: purified ligand protein (R&D) that binds Cripto and inhibits tumor cell proliferation | not responsive to Activin B | approximately 40% | directly binds CR-Fc immobilized on a Biacore chip with a high intensity |
